Results taken from patent US20210380703A1.
Positions count from the first letter of the chain named.

B1: 368_E06 (antibody, V domains shown)
VH: EVQLLESGGGLVQPGGSLRLSCAASGFTFSDYGMHWVRQAPGKGLEWVSGINYNGGYTGYADSVKGRFTISRDNSKNTLYLQMNSLRAEDTAVYYCARSANWHDTALDYWGQGTLVTVSS
VL: DIQMTQSPSSLSASVGDRVTITCRASQSILSYLNWYQQKPGKAPKLVIYGATSRASGVPSRFSGSGSGTDFTLTISSLQPEDFATYYCQQSYDSPLTFGGGTKVEIK
B2: 368_H04 (antibody, V domains shown)
VH: B1 VH with D31S, G33S, H35N, S49A, G55S, T58K, R98K, A106H
VL: B1 VL with L30V, L33V, V47L, G50A
B3: 369_B01 (antibody, V domains shown)
VH: B1 VH with D31S, G33S, H35N, G59S
VL: B1 VL with V47L, G50A, A51V, D93E, S94N
B4: 368_E07 (antibody, V domains shown)
VH: B1 VH with D31S, H35N, S49A, G59S, R98K
VL: B1 VL with V47L, G50A, A51V, D93E, S94N
B5: 369_D02 (antibody, V domains shown)
VH: B1 VH with G33S, H35N, G50N, G55S
VL: B1 VL with G50A, A51V, S94T
B6: 369_C03 (antibody, V domains shown)
VH: B1 VH with D31S, H35N, G50N, T58K, G59S
VL: B1 VL with S31T, G50A
B7: 369_E02 (antibody, V domains shown)
VH: B1 VH with S30D, D31S, H35N, G50N
VL: B1 VL with L30V, L33V, V47L, G50A, A51T, A55H, S94N
B8: 368_F11 (antibody, V domains shown)
VH: B1 VH with H35N, G59S, A106H
VL: B1 VL with L30V, L33V, G50A, D93N, S94N
B9: 369_D12 (antibody, V domains shown)
VH: B1 VH with S30D, D31S, G33S, H35N, S49A, G55S, G59S
VL: B1 VL with V47L, G50A, R54L, S94T
B10: 369_C02 (antibody, V domains shown)
VH: B1 VH with S30D, D31S, G33S, H35N, G50N, T58K, G59S
VL: B1 VL with S31T, G50A, D93E, S94L
B11: 368_G12 (antibody, V domains shown)
VH: B1 VH with D31S, H35N, S49A, G50S, G55S
VL: B1 VL with L30S, L33V, G50A, A51V, D93E, S94T
B12: 369_E11 (antibody, V domains shown)
VH: B1 VH with D31S, H35N, G50N, G59S
VL: B1 VL with L30I, V47L, G50A, R54L, S94T
B13: 369_C04 (antibody, V domains shown)
VH: B1 VH with D31S, G33S, H35N, G50N
VL: B1 VL with S31T, L33V, V47L, G50T, A51T, R54L, A55H, D93N, S94N
B14: 369_D04 (antibody, V domains shown)
VH: B1 VH with S30D, D31S, H35N, G59S
VL: B1 VL with L33V, G50A, D93N, S94L
B15: 369_A02 (antibody, V domains shown)
VH: B1 VH with D31S, G33S, H35N, S49A, G55S, A106H
VL: B1 VL with L33V, V47L, G50A, S94L
B16: 368_G01 (antibody, V domains shown)
VH: B1 VH with S49A, G50S, G55S, G59S
VL: B1 VL with S31T, G50A, D93N, S94L
B17: 369_E12 (antibody, V domains shown)
VH: B1 VH with D31S, S49A, G50S, G55S, G59S
VL: B1 VL with L30I, V47L, G50A, D93E
B18: 368_F03 (antibody, V domains shown)
VH: B1 VH with S30D, D31S, G33S, H35N, S49A, G55S, R98K
VL: B1 VL with L30I, G50A, A55H

What follows are binders tested against Human Fc (human) (assay: ELISA, negative control).

optical density | Binder
0.325 OD | B1
0.319 OD | B2
0.487 OD | B3
0.251 OD | B4
0.407 OD | B5
0.323 OD | B6
0.365 OD | B7
0.338 OD | B8
0.425 OD | B9
0.369 OD | B10
0.341 OD | B11
0.343 OD | B12
0.248 OD | B13
0.435 OD | B14
0.383 OD | B15
0.431 OD | B16
0.452 OD | B17
0.323 OD | B18
